Laboratory results: the supplement of paper PMC10724198
± gives the standard deviation of the averaged measurements.

Assays:
Saccharomyces cerevisiae [1] = assay: protein stability index of tFT-peptide fusion (C-terminal peptide) (PSI (0-1 scale)); higher = more stable (slower turnover)
Description: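 MPS profiling in S. cerevisiae of the tFT-X12 degron library: putative degron peptides plus stable controls, 12 aa, fused to the C-terminus of a sfGFP-mCherry timer. Cells are FACS-sorted into 8 mCherry/sfGFP bins and deep-sequenced. PSI runs from 0 (unstable) to 1 (stable). Backgrounds are wild type, das1Δ and doa10Δ at 30 °C, and wild type, das1Δ, cdc34-1 and cdc53-1 at 37 °C; 2-3 technical replicates each.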

Saccharomyces cerevisiae [2] = assay: as above; conditions: genetic background: wild type; temperature: 30 C
[3] = genetic background: cdc34-1, temperature: 37 C
[4] = genetic background: cdc53-1, temperature: 37 C
[5] = genetic background: das1 deletion, temperature: 30 C
[6] = genetic background: das1 deletion, temperature: 37 C
[7] = genetic background: doa10 deletion, temperature: 30 C
[8] = genetic background: wild type, temperature: 30 C
[9] = genetic background: wild type, temperature: 37 C
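Also: PSI is a weighted mean of sequencing reads over stability bins, variants kept only with over 10 reads, mCherry proximal and sfGFP distal, peptide attached via GGGS linker.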

Sequence | protein stability index (Saccharomyces cerevisiae [2]) | further results
TWGGGRVSLGGG |  | protein stability index (Saccharomyces cerevisiae [1]; [3]): 0.316 ± 0.038; protein stability index (Saccharomyces cerevisiae [1]; [4]): 0.4048 ± 0.0019; protein stability index (Saccharomyces cerevisiae [1]; [5]): 0.361 ± 0.013; protein stability index (Saccharomyces cerevisiae [1]; [6]): 0.4176 ± 0.0019; protein stability index (Saccharomyces cerevisiae [1]; [7]): 0.363 ± 0.01; protein stability index (Saccharomyces cerevisiae [1]; [8]): 0.364 ± 0.017; protein stability index (Saccharomyces cerevisiae [1]; [9]): 0.407 ± 0.028
VCNSIPLTPPPA |  | protein stability index (Saccharomyces cerevisiae [1]; [3]): 0.679 ± 0.031; protein stability index (Saccharomyces cerevisiae [1]; [4]): 0.7272 ± 0.0045; protein stability index (Saccharomyces cerevisiae [1]; [5]): 0.618 ± 0.025; protein stability index (Saccharomyces cerevisiae [1]; [6]): 0.716 ± 0.015; protein stability index (Saccharomyces cerevisiae [1]; [7]): 0.6171 ± 0.00098; protein stability index (Saccharomyces cerevisiae [1]; [8]): 0.641 ± 0.026; protein stability index (Saccharomyces cerevisiae [1]; [9]): 0.703 ± 0.033
VSGITLPFLMFH |  | protein stability index (Saccharomyces cerevisiae [1]; [3]): 0.287 ± 0.055; protein stability index (Saccharomyces cerevisiae [1]; [4]): 0.242 ± 0.034; protein stability index (Saccharomyces cerevisiae [1]; [5]): 0.348 ± 0.022; protein stability index (Saccharomyces cerevisiae [1]; [6]): 0.458 ± 0.012; protein stability index (Saccharomyces cerevisiae [1]; [7]): 0.635 ± 0.0033; protein stability index (Saccharomyces cerevisiae [1]; [8]): 0.329 ± 0.063; protein stability index (Saccharomyces cerevisiae [1]; [9]): 0.426 ± 0.0043
VSGSFRVCFRVW |  | protein stability index (Saccharomyces cerevisiae [1]; [3]): 0.612 ± 0.048; protein stability index (Saccharomyces cerevisiae [1]; [4]): 0.629 ± 0.0076; protein stability index (Saccharomyces cerevisiae [1]; [5]): 0.521 ± 0.032; protein stability index (Saccharomyces cerevisiae [1]; [6]): 0.608 ± 0.015; protein stability index (Saccharomyces cerevisiae [1]; [7]): 0.538 ± 0.024; protein stability index (Saccharomyces cerevisiae [1]; [8]): 0.517 ± 0.012; protein stability index (Saccharomyces cerevisiae [1]; [9]): 0.5981 ± 0.004
VWWWGGVGWLMV |  | protein stability index (Saccharomyces cerevisiae [1]; [3]): 0.571 ± 0.047; protein stability index (Saccharomyces cerevisiae [1]; [4]): 0.601 ± 0.026; protein stability index (Saccharomyces cerevisiae [1]; [5]): 0.52 ± 0.01; protein stability index (Saccharomyces cerevisiae [1]; [6]): 0.625 ± 0.025; protein stability index (Saccharomyces cerevisiae [1]; [7]): 0.386 ± 0.015; protein stability index (Saccharomyces cerevisiae [1]; [8]): 0.412 ± 0.019; protein stability index (Saccharomyces cerevisiae [1]; [9]): 0.544 ± 0.012
WSRGGVLGVCCG | 0.536 ± 0.031 | 
WSSRGAIDSARH | 0.762 ± 0.019 | 
WSTGEKMALHGR | 0.787 ± 0.12 | 
WSTVCKIAGAID | 0.706 ± 0.028 | 
WTSPRISPRSPL | 0.726 ± 0.014 | 
WVEACVCRGFVG | 0.698 ± 0.059 | 
WVGAVVGAGGRW | 0.614 ± 0.089 | 
WVGFRTFGVWGV | 0.707 ± 0.063 | 
WVGGDINFWWGG | 0.747 ± 0.12 | 
WVGGVACGAGGG | 0.62 ± 0.069 | 
WVKPVRAWTILR | 0.605 ± 0.025 | 
WVPGPLEPSLVL | 0.774 ± 0.0096 | 
WVPLGPFCLPLF | 0.724 ± 0.1 | 
WVPPPPYSPFSL | 0.695 ± 0.027 | 
WVRIGVEFGWGE | 0.689 ± 0.11 | 
WVRQYFRGLQLR | 0.595 ± 0.074 | 
WVSWGCCSFLLT | 0.616 ± 0.0092 | 
WVVSLTNSLAHV | 0.581 ± 0.013 | 
WVVSRGPFAVGP | 0.68 ± 0.021 | 
WWEVSFRVGAVR | 0.648 ± 0.025 | 

Sequence | protein stability index (Saccharomyces cerevisiae [2]) | further results
WWGRWPGLAGGR | 0.716 ± 0.068 | 
WWKLSGTGWGTL | 0.73 ± 0.022 | 
WWLRLVLCGWEW | 0.721 ± 0.074 | 
WWSFVGACDGVG | 0.549 ± 0.012 | 
WWWGGVRGGMGG | 0.749 ± 0.026 | 
YADAGRVSLWIA | 0.5512 ± 0.0054 | 
YAERNKKTLKDT | 0.638 ± 0.011 | 
YALWRFRSLADV | 0.695 ± 0.1 | 
YCGGRCGGWEIG | 0.698 ± 0.012 | 
YCSITGIRLLVG | 0.579 ± 0.023 | 
YDAGWVDVLLVI | 0.6419 ± 0.0064 | 
YDGGLAALQVLL | 0.68 ± 0.051 | 
YDIAVDAEIDPY | 0.685 ± 0.0081 | 
YEKWIKKCNKEE | 0.689 ± 0.068 | 
YEQLSGHPPVVR | 0.7236 ± 0.0014 | 
YFGGMGPRGRER | 0.683 ± 0.016 | 
YFSQPLGPSPLL | 0.812 ± 0.074 | 
YFWTHLISIPDV | 0.676 ± 0.062 | 
YGCSRALGCMGG | 0.596 ± 0.14 | 
YGFLFRFLSPNP | 0.6788 ± 0.0038 | 
YGGLFFLVSLPP | 0.566 ± 0.0082 | 
YGIILPIRVSGF | 0.631 ± 0.035 | 
YGSGSDGRGGPG | 0.662 ± 0.0077 | 
YGVCFKAFQFKL | 0.676 ± 0.056 | 
YHALNSLHPPSP | 0.69 ± 0.027 | 

Sequence | protein stability index (Saccharomyces cerevisiae [2]) | further results
YHNFLPRPPRKR | 0.662 ± 0.077 | 
YIIEGKRKYNRI | 0.682 ± 0.029 | 
YILLGEFAGVFP | 0.689 ± 0.17 | 
YINIKKKKINKT | 0.688 ± 0.039 | 
YINVEPRITKNT | 0.709 ± 0.0085 | 
YIPPGNTTVPSC | 0.694 ± 0.038 | 
YKPKGSKKFKNK | 0.624 ± 0.029 | 
YKSELSIPYAPV | 0.687 ± 0.015 | 
YLLDTLTAAREI | 0.673 ± 0.016 | 
YLLLVPDTRTLL | 0.683 ± 0.0079 | 
YLLYSDSLCFVT | 0.659 ± 0.03 | 
YLPDPVVSLAHS | 0.656 ± 0.063 | 
YLYLKSRDTFLN | 0.7094 ± 0.0013 | 
YMGDFRPAFAVT | 0.64 ± 0.046 | 
YMLSMIYEIEMM | 0.578 ± 0.04 | 
YNRALPGGQAML | 0.795 ± 0.039 | 
YPHPPRPSNQLF | 0.615 ± 0.0079 | 
YPIRPRYSPAGN | 0.721 ± 0.043 | 
YPPCSPGPLAPS | 0.672 ± 0.026 | 
YPPPPLPPPRPP | 0.555 ± 0.015 | 
YPPYPSHSSLHT | 0.6987 ± 0.0062 | 
YPSDLRPPSSPI | 0.7512 ± 0.0041 | 
YPSTESPAGLAL | 0.726 ± 0.025 | 
YPTQSPSPAPPT | 0.644 ± 0.099 | 
YQDDGRRPGFVI | 0.675 ± 0.013 | 

Sequence | protein stability index (Saccharomyces cerevisiae [2]) | further results
YQDGLCYYFCTT | 0.559 ± 0.02 | 
YQSHFERSGVAR | 0.674 ± 0.077 | 
YRFFGGYWETGW | 0.744 ± 0.033 | 
YRLCEARVQSDN | 0.685 ± 0.022 | 
YRSLFPAPPLHP | 0.6747 ± 0.0026 | 
YRSTPTGPPRPT | 0.758 ± 0.13 | 
YSASPLSCICPP | 0.652 ± 0.053 | 
YSFVKEFLNHRY | 0.681 ± 0.036 | 
YSGLNRVPDFCH | 0.676 ± 0.039 | 
YSGRGLISNHGY | 0.723 ± 0.043 | 
YSLQSCGFLANE | 0.642 ± 0.03 | 
YTPPNTLCPPVA | 0.703 ± 0.24 | 
YTSHRGKVYMSV | 0.632 ± 0.019 | 
YTTVRGETRSQL | 0.727 ± 0.017 | 
YVARRRPHPTGP | 0.778 ± 0.17 | 
YVFFPNGGLRLG | 0.564 ± 0.022 | 
YVGGGAGVLLVL | 0.623 ± 0.014 | 
YVGLSSRSFLSF | 0.687 ± 0.033 | 
YVLLDFFFFFLV |  | protein stability index (Saccharomyces cerevisiae [1]; [3]): 0.216 ± 0.044; protein stability index (Saccharomyces cerevisiae [1]; [4]): 0.329 ± 0.029; protein stability index (Saccharomyces cerevisiae [1]; [5]): 0.24 ± 0.017; protein stability index (Saccharomyces cerevisiae [1]; [6]): 0.356 ± 0.043; protein stability index (Saccharomyces cerevisiae [1]; [7]): 0.211 ± 0.0032; protein stability index (Saccharomyces cerevisiae [1]; [8]): 0.182 ± 0.06; protein stability index (Saccharomyces cerevisiae [1]; [9]): 0.255 ± 0.032
YVSSYILPVTRV | 0.603 ± 0.045 | 
YVTPALRPTSSR | 0.728 ± 0.031 | 
YWAPYVWMFGFR | 0.565 ± 0.0088 | 
YYPRGIYHNSMT | 0.713 ± 0.033 | 
